According to paper PMC7102968, “The complex formed between a synthetic RNA aptamer and the transcription repressor TetR is a structural and functional twin of the operator DNA–TetR regulator complex” (Nucleic Acids Research, 2020):

Molecular target: the molecule itself
Experiment: crystal structure; TetR co-crystallised with RNA aptamer K1 (2.7 Å) or K2 (2.9 Å); complex purified by gel filtration in 20 mM Tris-HCl pH 8.0, 150 mM NaCl, 5 mM MgCl2; sitting-drop vapor diffusion at 20°C

B1: TetR type BD' (TetR (B1–B187:D188–D208; C68S, C88N, C121T and C144S)) (natural protein)
chain: MSRLDKSKVINSALELLNEVGIEGLTTRKLAQKLGVEQPTLYWHVKNKRALLDALAIEMLDRHHTHFSPLEGESWQDFLRNNAKSFRNALLSHRDGAKVHLGTRPTEKQYETLENQLAFLTQQGFSLENALYALSAVGHFTLGSVLEDQEHQVAKEERETPTTDSMPPLLRQAIELFDHQGAEPAFLHGLESLIRGFEVQLTALLQIV
notes: TetR class B, residues 1-187 of the cysteine-free chimeric TetR type BD'; TetR class D, residues 188-208 of the chimeric TetR type BD'; homodimer; also called Tet repressor; wild-type TetR; source: purified
stoichiometry N: 2
